Reference: patent US11732048B2, “Anti-axl antagonistic antibodies” (BERGEN TEKNOLOGIOVERFØRING AS, priority 2016, dated 2023)
Entries after “also recorded” stand apart in the source; their conditions may differ. Blank lines part the entries; values can stand above or below the molecule they belong to.

Legend:
[1] = system: Axl-dependent phosphorylation of Akt in LX2 cells; test: Axl-dependent AKT activation (pAkt Ser473 Western blot) in LX2 cells; assay type: cell-based, human
Method: Activation of Axl by Gas6 or cross-linking antibodies leads to phosphorylation of Akt.
Effect of Axl blocking antibodies in blocking Axl-dependent AKT activation in LX2 cells: • Cells were seeded in 12-well/plate (2×10^5 cells/well) in DMEM/10% FBS and allowed to attach and grow for >24 h. […] Axl activation was read out via phosphorylation of Akt on serine 473 (Western blot).
Protein Analysis: • Cells were lysed in RIPA buffer (150 mM NaCl, 1.0% IGEPAL® CA-630, 0.5% sodium deoxycholate, 0.1% SDS, 50 mM Tris, pH 8.0., SIGMA-ALDRICH) supplemented with antiproteases and anti-phosphatases (PMSF, sodium orthovanadate, protease inhibitor cocktail, and sodium fluoride), adjusted to 1× Laemmli loading buffer, sonicated, and centrifuged. 20-30 μl of the samples were subjected to 8% sodium dodecyl sulphate-polyacrylamide gel electrophoresis and then transferred to nitrocellulose membranes. Membranes were blocked in 5% BSA-FAF and washed in TBS Tween buffer and then developed with Pierce-ECL western blotting Substrate. • The antibodies used were p-AKT (p-Akt1/2/3 (C-11)), 1:200 in 5% BSA/TBS-T, o/n at 4° C.; AKT (1:200), followed by anti-mouse m-IgGκ BP-HRP (1:2000, 1 h, RT); anti-AKT (Akt1/2/3 (H-136)), 1:400, 1 h, RT followed by anti-rabbit-IgG-HRP (1:20000, 1 h, RT).
Activation of Axl is often achieved by treating Axl with its ligand, Gas6. […]

[2] = system: Axl autophosphorylation (Tyrosine 866) in HeLa cells; test: Phospho-Axl (Y866) ELISA on HeLa cell lysates; assay type: cell-based, human
Method: To assess the level to which various Axl inhibitors reduce activation of Axl, as assessed through on of inhibition of Tyrosine 866 (Y866), one of Axl's known autophosphorylation sites (others include Y779 and Y821—see Oncotarget. 2014 October; 5(20): 9546-9563; doi: 10.18632/oncotarget.2542 and references cited therein).
Lysate Preparation • 1. Seed out HeLa cells in 14 10-cm dishes • a. 3 million cells per dish • 2. Incubate cells until attached • 3. Remove medium and wash cells with PBS • 4. Serum-starve the cells in 0.5% FBS media • a. 0.5% MEM for HeLa • b. O/N, at least 24 hour starvation • 5. Incubate cells with anti-Axl antibodies for 1 hour in 6 ml fresh 0.5% MEM. • a. BGB324 (CAS=1037624-75-1, UNII=0ICW2LX8AS): 0.2 uM • b. H2L1-Evitra*: 50 ug/ml • c. H2L1-Catalent*: 50 ug/ml • d. YW327.6S2: 50 ug/ml • *same sequence, different preparation • 6. Stimulate designated plates with 0.01 ug/ml rhGas6 in 6 ml of total media per 10-cm dish. • a. rhGas6 stimulation 0.01 ug/ml • 7. Set-up: Make each in 26 ml of 0.5% MEM • #1. Starvation • #2. rhGas6 stimulation (0.01 ug/ml) • #3. rhGas6 stimulation+pre-incubation with BGB324 0.2 uM • #4. rhGas6 stimulation+pre-incubation with H2L1-Evitra: 50 ug/ml • #5. rhGas6 stimulation+pre-incubation with H2L1-Catalent: 50 ug/ml • #6. rhGas6 stimulation+pre-incubation with YW327.6S2 50 ug/ml • #7. BGB324 0.2 uM alone • #8. H2L1-Evitra: 50 ug/ml alone • #9. H2L1-Catalent: 50 ug/ml alone • #10. YW327.6S2 50 ug/ml alone • 8. Stop reaction by lysing cells on ice • 9. Wash with cold PBS • 10. Add RIPA buffer (plus phosphatase inhibitors) • a. 100 ul/dish • 11. Scrape cells from dish • 12. Incubate 5-10 min on ice • 13. Spin down 13,000 rpm 5-10 min (cold) • 14. Supernatant transferred to fresh tube • 15. Measure phospho-protein by ELISA […]
Materials • Nunc MaxiSorp 96C plates • Tris-buffered saline (TBS) pH7.6 • Tween 20 (Sigma) • Wash buffer (TBS+0.05% Tween 20) • Fetal bovine serum (FBS) (Sigma) • Monoclonal mouse anti-HsAxl antibody 5F11, 3.6 mg/ml stock (BerGenBio). • Polyclonal rabbit anti-Hs-phospho-Y866 Axl antibody pAxl-Y866-16, 1.0 mg/ml (BerGenBio). […] For HeLa cells total protein concentration 1.5 mg/ml gives a strong signal. • Microplate reader with 450 nm absorbance. Absorbance at 595 nm (if available) should be subtracted to reduce background, but the effect is marginal. […]
Develop • Prepare fresh substrate solution: • 100 μl 10 mg/ml TMB stock solution • 10 μl 30% Hydrogen peroxide solution • 9.9 ml 100 mM Sodium acetate pH6 • Optional: test a small volume of the substrate solution by adding 1 μl leftover HRP-conjugated detection antibody mixture (step 12). […] Read plate on microplate reader with absorbance of 450 nm.

[3] = target: T1, human Axl (rhAxl-Fc chimera) (Homo sapiens, UniProt P30530); test: Biacore kinetic analysis (surface plasmon resonance) on immobilised rhAxl-Fc; assay type: binding
T1 construct: Soluble recombinant antigens corresponding to the extracellular domains of members of the human TAM receptor family; Fc; purchased R&D Systems 154-AL
Method: Kinetic analysis of murine MAb 10G5 interacting with rhAxl immobilized on the surface of the Biacore sensor chip. Overlay plots of sensograms for different antibody concentrations (0.3-166.7 nM for murine 10G5) are shown. The precise kinetic analysis was performed using BIA evaluation software and curve fitting according to 1:1 Langmuir binding model. […]
Affinity determination of anti-Axl antibody 10G5 was performed at 25° C. by surface plasmon resonance measurements using Biacore 3000 instrument (GE Healthcare). As a solid antigen-coated surface, a sensor chip CM5 with immobilized rhAxl-Fc chimera (R&D Systems, Cat. no. 154-AL) at density 190 RU was used.
For the kinetics measurements, different concentrations of anti-Axl antibodies (from 0.3 to 666.7 nM) in HBS-EP buffer (Biacore, Cat. no. BR-1001-88) were injected at flow rate of 30 μL/min with 3 min injection time followed by 5 min dissociation (buffer alone). After each cycle, the surface was regenerated by 30 sec injection of a regeneration solution (10 mM HCl, 1 M NaCl) at flow rate 50 μL/min.
The kinetic association (on-rate, kon) and dissociation (off-rate, koff) rates were calculated using BIAevaluation software and 1:1 Langmuir binding model. The equilibrium dissociation constant (KD) was calculated as the koff/kon ratio. The half-life (t1/2) of the formed antibody-antigen complexes was calculated as the ln 2/koff ratio. […]

[4] = target: T2, Hs-Axl-Fc (immobilized Axl-Fc) (Homo sapiens, UniProt P30530); test: Biacore binding competition assays, two injections (Example 22); settings: Gas6 10 μg/mL as first protein
T2 construct: Fc
From the text: Sensor chip with immobilised Axl: Hs-Axl-Fc (638.2 RU), Mm-Axl-Fc (334.5 RU), Rhe-Axl-Fc (350.2 RU)
In this experiment, a first antibody was allowed to bind to saturation. A second antibody was then applied and its ability to bind was monitored.
If the second antibody recognizes the same (or overlapping) epitope as the first antibody then binding will be blocked. If the second antibody recognizes a different epitope then binding will be detected at the same level as if no first antibody was present.
The ability of Gas6 to block antibody binding was also tested, using Gas6 at 10 μg/mL in HBS-EP.
All tests were performed in parallel on Hs-Axl-Fc, Mm-Axl-Fc and Rhe-Axl-Fc surfaces.
See FIG. 1 for a list of the pairs that were tested (in this list Contr-1 is incorrectly labeled YW367 instead of YW327.6S2var). All antibodies were at 25 μg/mL in HBS-EP.
• 2. Perform Biacore experiments at 25° C. • 3. In the instrument control software choose Direct Binding, and select settings for two injections as shown below. • 4. […] Store the template & the result file, start the analysis.

[5] = system: A549 tumours; test: A549 human NSCLC xenograft in mice (Examples 14, 16, 17, 18); assay type: in vivo, mouse; settings: SCID mice, 30 mg/kg i.p. twice weekly, after two weeks of treatment, versus control (SYNAGIS)
From the text: SCID mice were implanted subcutaneously (s.c.) into the flank with 5×10^6 A549 cells resuspended in serum-free medium/Matrigel (1:1).

[6] = agent alone, starved HeLa (antibodies 50 ug/ml, BGB324 0.2 uM, rhGas6 0.01 ug/ml)
[7] = rhGas6 0.01 ug/ml stimulation after 1 hour pre-incubation (antibodies 50 ug/ml, BGB324 0.2 uM), starved HeLa
[8] = rhAxl immobilized on Biacore sensor chip, 25° C., 1:1 Langmuir binding model

Molecule: Nc1nc(Nc2ccc3c(c2)CC[C@@H](N2CCCC2)CC3)nn1-c1cc2c(nn1)-c1ccccc1CCC2 [BGB324, 1-(6,7-dihydro-5H-benzo[6,7]cyclohepta[1,2-c]pyridazin-3-yl)-N3-((7-(S)-pyrrolidin-1-yl)-6,7,8,9-tetrahydro-5H-benzo[7]annulene-2-yl)-1H-1,2,4-triazole-3,5-diamine, reference compound]
Inhibition of 1H12-stimulated pAkt ([1]; FIG. 22B): can be inhibited; also recorded: clear response | Absorbance @ 450 nm (pAxl reading) [2, 6]: 0.039 | Absorbance @ 450 nm (pAxl reading) [2, 7]: 0.045

B1: rhGas6: recombinant human Gas6, Axl ligand (protein, listed as Homo sapiens)
chain: MAPSLSPGPAALRRAPQLLLLLLAAECALAALLPAREATQFLRPRQRRAFQVFEEAKQGHLERECVEELCSREEAREVFENDPETDYFYPRYLDCINKYGSPYTKNSGFATCVQNLPDQCTPNPCDRKGTQACQDLMGNFFCLCKAGWGGRLCDKDVNECSQENGGCLQICHNKPGSFHCSCHSGFELSSDGRTCQDIDECADSEACGEARCKNLPGSYSCLCDEGFAYSSQEKACRDVDECLQGRCEQVCVNSPGSYTCHCDGRGGLKLSQDMDTCEDILPCVPFSVAKSVKSLYLGRMFSGTPVIRLRFKRLQPTRLVAEFDFRTFDPEGILLFAGGHQDSTWIVLALRAGRLELQLRYNGVGRVTSSGPVINHGMWQTISVEELARNLVIKVNRDAVMKIAVAGDLFQPERGLYHLNLTVGGIPFHEKDLVQPINPRLDGCMRSWNWLNGEDTTIQETVKVNTRMQCFSVTERGSFYPGSGFAFYSLDYMRTPLDVGTESTWEVEVVAHIRPAADTGVLFALWAPDLRAVPLSVALVDYHSTKKLKKQLVVLAVEHTALALMEIKVCDGQEHVVTVSLRDGEATLEVDGTRGQSEVSAAQLQERLAVLERHLRSPVLTFAGGLPDVPVTSAPVTAFYRGCMTLEVNRRLLDLDEAAYKHSDITAHSCPPVEPAAA
modifications: (1)..(678) Homo sapiens Gas6
Stimulation of Akt phosphorylation ([1]; FIG. 22A, Gas6 versus cross-linking 1H12): weaker | Absorbance @ 450 nm (pAxl reading) [2, 6]: 0.077

KD lower than that of the chimeric antibody ([3]; comparison referring to Table 3): at least 50% | Off-rate (koff) [3, 8]: 0.000142 s⁻¹ | On-rate (kon) [3, 8]: 2.07e+06 M⁻¹ s⁻¹ | Effect of Gas6 bound first on subsequent binding of the antibody [4]: inhibited | Effect of Gas6 bound first on subsequent binding of the antibody ([4]; listed as 1H21L1): blocks binding
B2: H2L1: humanised variant of 10G5; presumably VH GH2 (SEQ ID NO: 2) with VL GL1 (SEQ ID NO: 3) (antibody, V domains shown)
VH: EVQLVESGGGLVQPGGSLRLSCAASGYSFTDFYINWVRQAPGKGLEWVARIFPGGDNTYYNEKFKGRFTLSADTSKSTAYLQMNSLRAEDTAVYYCARRGLYYAMDYWGQGTLVTVSS
VL: DIQMTQSPSSLSASVGDRVTITCRSSQSLVHSNGIPYLHWYQQKPGKAPKLLIYRVSNRFSGVPSRFSGSGSGTDFTLTISSLQPEDFATYYCSQGTHVPPTFGQGTKVEIK
modifications: hu10G5 VH(GH2); hu10G5 VL(GL1)
Absorbance @ 450 nm (pAxl reading) [2, 7]: 0.055 | Inhibition of A549 tumour growth [5]: around 25%
